Test results from patent US20250171562A1 (ALK ABELL, published 2025).
Numbering of substitutions follows the chain as printed. Numbers in names are those of the source.

B1: CIgG4E4A1(G4S)3 (Fc fusion)
chain 1: GPPCPPCPAPEFLGGPSVFLFPPKPKDTLMISRTPEVTCVVVDVSQEDPEVQFNWYVDGVEVHNAKTKPREEQFNSTYRVVSVLTVLHQDWLNGKEYKCKVSNKGLPSSIEKTISKAKGQPREPQVYTLPPCQEEMTKNQVSLWCLVKGFYPSDIAVEWESNGQPENNYKTTPPVLDSDGSFFLYSRLTVDKSRWQEGNVFSCSVMHEALHNHYTQKSLSLSLGKGGGGSGGGGSGGGGSDVQLQESGGGLVQPGGSLRLSCAASGFRFSNYAMRWYRQAPGKEREFVARISSTGFITRYTASVRDRFTISRDNDKNMMYLQLNKLTPQDTAHYYCNAESTDYWGQGTQVTVS
chain 2: GPPCPPCPAPEFLGGPSVFLFPPKPKDTLMISRTPEVTCVVVDVSQEDPEVQFNWYVDGVEVHNAKTKPREEQFNSTYRVVSVLTVLHQDWLNGKEYKCKVSNKGLPSSIEKTISKAKGQPREPQVCTLPPSQEEMTKNQVSLSCAVKGFYPSDIAVEWESNGQPENNYKTTPPVLDSDGSFFLVSRLTVDKSRWQEGNVFSCSVMHEALHNHYTQKSLSLSLGKGGGGSGGGGSGGGGSEVQLLESGGGLVQPGGSLRLSCAASGFTFGNYDMAWVRQAPGKRPEWVSSIDTGGDITHYADSVKGRFTISRDNAKNTLYLQMNSLRPEDTAVYWCATDEEYALGPNEFDYYGQGTLVTVSS
B2: CIgG4F1A1(G4S)3 (Fc fusion)
chain 1: GPPCPPCPAPEFLGGPSVFLFPPKPKDTLMISRTPEVTCVVVDVSQEDPEVQFNWYVDGVEVHNAKTKPREEQFNSTYRVVSVLTVLHQDWLNGKEYKCKVSNKGLPSSIEKTISKAKGQPREPQVYTLPPCQEEMTKNQVSLWCLVKGFYPSDIAVEWESNGQPENNYKTTPPVLDSDGSFFLYSRLTVDKSRWQEGNVFSCSVMHEALHNHYTQKSLSLSLGKGGGGSGGGGSGGGGSDVQLQESGGGLVQAGGSLKLSCAASGGSLSRYDMGWFRQAPGKEREFVARISWSGTTKYYADAVKGRFAISRDNAKNTVYLQMNSLKPEDTAVYYCAAAFYGNRGYYDVNAYTSSGQGTQVTVS
chain 2: B1 chain 2
B3: CIgG4F1A1(RS) (Fc fusion)
chain 1: GPPCPPCPAPEFLGGPSVFLFPPKPKDTLMISRTPEVTCVVVDVSQEDPEVQFNWYVDGVEVHNAKTKPREEQFNSTYRVVSVLTVLHQDWLNGKEYKCKVSNKGLPSSIEKTISKAKGQPREPQVYTLPPCQEEMTKNQVSLWCLVKGFYPSDIAVEWESNGQPENNYKTTPPVLDSDGSFFLYSRLTVDKSRWQEGNVFSCSVMHEALHNHYTQKSLSLSLGKRSDVQLQESGGGLVQAGGSLKLSCAASGGSLSRYDMGWFRQAPGKEREFVARISWSGTTKYYADAVKGRFAISRDNAKNTVYLQMNSLKPEDTAVYYCAAAFYGNRGYYDVNAYTSSGQGTQVTVS
chain 2: GPPCPPCPAPEFLGGPSVFLFPPKPKDTLMISRTPEVTCVVVDVSQEDPEVQFNWYVDGVEVHNAKTKPREEQFNSTYRVVSVLTVLHQDWLNGKEYKCKVSNKGLPSSIEKTISKAKGQPREPQVCTLPPSQEEMTKNQVSLSCAVKGFYPSDIAVEWESNGQPENNYKTTPPVLDSDGSFFLVSRLTVDKSRWQEGNVFSCSVMHEALHNHYTQKSLSLSLGKRSEVQLLESGGGLVQPGGSLRLSCAASGFTFGNYDMAWVRQAPGKRPEWVSSIDTGGDITHYADSVKGRFTISRDNAKNTLYLQMNSLRPEDTAVYWCATDEEYALGPNEFDYYGQGTLVTVSS
B4: CIgG4F2A1(RS) (Fc fusion)
chain 1: B3 chain 1 with T283D, K292E, K303Q, A325V, F327L, A338T, T340S, S341Y, S342W, Q347R
chain 2: B3 chain 2
B5: CIgG4F1A1(G4S)1 (Fc fusion)
chain 1: GPPCPPCPAPEFLGGPSVFLFPPKPKDTLMISRTPEVTCVVVDVSQEDPEVQFNWYVDGVEVHNAKTKPREEQFNSTYRVVSVLTVLHQDWLNGKEYKCKVSNKGLPSSIEKTISKAKGQPREPQVYTLPPCQEEMTKNQVSLWCLVKGFYPSDIAVEWESNGQPENNYKTTPPVLDSDGSFFLYSRLTVDKSRWQEGNVFSCSVMHEALHNHYTQKSLSLSLGKGGGGSDVQLQESGGGLVQAGGSLKLSCAASGGSLSRYDMGWFRQAPGKEREFVARISWSGTTKYYADAVKGRFAISRDNAKNTVYLQMNSLKPEDTAVYYCAAAFYGNRGYYDVNAYTSSGQGTQVTVS
chain 2: GPPCPPCPAPEFLGGPSVFLFPPKPKDTLMISRTPEVTCVVVDVSQEDPEVQFNWYVDGVEVHNAKTKPREEQFNSTYRVVSVLTVLHQDWLNGKEYKCKVSNKGLPSSIEKTISKAKGQPREPQVCTLPPSQEEMTKNQVSLSCAVKGFYPSDIAVEWESNGQPENNYKTTPPVLDSDGSFFLVSRLTVDKSRWQEGNVFSCSVMHEALHNHYTQKSLSLSLGKGGGGSEVQLLESGGGLVQPGGSLRLSCAASGFTFGNYDMAWVRQAPGKRPEWVSSIDTGGDITHYADSVKGRFTISRDNAKNTLYLQMNSLRPEDTAVYWCATDEEYALGPNEFDYYGQGTLVTVSS
B6: CIgG4F2A1(G4S)1 (Fc fusion)
chain 1: B5 chain 1 with T286D, K295E, K306Q, A328V, F330L, A341T, T343S, S344Y, S345W, Q350R
chain 2: B5 chain 2
B7: CIgG4F1A1(G4S)2 (Fc fusion)
chain 1: GPPCPPCPAPEFLGGPSVFLFPPKPKDTLMISRTPEVTCVVVDVSQEDPEVQFNWYVDGVEVHNAKTKPREEQFNSTYRVVSVLTVLHQDWLNGKEYKCKVSNKGLPSSIEKTISKAKGQPREPQVYTLPPCQEEMTKNQVSLWCLVKGFYPSDIAVEWESNGQPENNYKTTPPVLDSDGSFFLYSRLTVDKSRWQEGNVFSCSVMHEALHNHYTQKSLSLSLGKGGGGSGGGGSDVQLQESGGGLVQAGGSLKLSCAASGGSLSRYDMGWFRQAPGKEREFVARISWSGTTKYYADAVKGRFAISRDNAKNTVYLQMNSLKPEDTAVYYCAAAFYGNRGYYDVNAYTSSGQGTQVTVS
chain 2: GPPCPPCPAPEFLGGPSVFLFPPKPKDTLMISRTPEVTCVVVDVSQEDPEVQFNWYVDGVEVHNAKTKPREEQFNSTYRVVSVLTVLHQDWLNGKEYKCKVSNKGLPSSIEKTISKAKGQPREPQVCTLPPSQEEMTKNQVSLSCAVKGFYPSDIAVEWESNGQPENNYKTTPPVLDSDGSFFLVSRLTVDKSRWQEGNVFSCSVMHEALHNHYTQKSLSLSLGKGGGGSGGGGSEVQLLESGGGLVQPGGSLRLSCAASGFTFGNYDMAWVRQAPGKRPEWVSSIDTGGDITHYADSVKGRFTISRDNAKNTLYLQMNSLRPEDTAVYWCATDEEYALGPNEFDYYGQGTLVTVSS
B8: CIgG4F2A1(G4S)2 (Fc fusion)
chain 1: B7 chain 1 with T291D, K300E, K311Q, A333V, F335L, A346T, T348S, S349Y, S350W, Q355R
chain 2: B7 chain 2

Biological target: T1, recombinant human IgE (human, UniProt P01854-1 1-428)
T1 construct: made in-house (ALK); preloaded on immobilised FcεRIα in the displacement ELISA
Test: IgE-FcεRIα displacement ELISA
Summary of the method: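 sdAbs at pM–μM were incubated 1 h on preformed complexes of 13 ng/ml recombinant human IgE with avi-tag-biotinylated human FcεRIα captured on streptavidin.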

T1 sequence (P01854 other isoform, or with tags, fused parts or gaps): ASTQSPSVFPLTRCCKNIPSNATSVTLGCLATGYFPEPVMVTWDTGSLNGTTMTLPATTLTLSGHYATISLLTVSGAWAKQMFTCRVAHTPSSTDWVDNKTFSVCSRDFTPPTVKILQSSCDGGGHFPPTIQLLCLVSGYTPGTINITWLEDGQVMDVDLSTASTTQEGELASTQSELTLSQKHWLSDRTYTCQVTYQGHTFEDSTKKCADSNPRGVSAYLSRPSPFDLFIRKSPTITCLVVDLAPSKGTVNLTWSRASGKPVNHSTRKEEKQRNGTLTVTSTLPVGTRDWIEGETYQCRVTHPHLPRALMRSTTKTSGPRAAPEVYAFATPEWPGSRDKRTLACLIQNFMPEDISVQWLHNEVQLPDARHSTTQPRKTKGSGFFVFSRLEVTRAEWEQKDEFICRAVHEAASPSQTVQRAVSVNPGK

Binder | EC50 [nM] | Max effect [%]
B1 | 22 | 95
B2 | 480 | 65
B3 |  | 0
B4 |  | 10
B5 |  | 30
B6 |  | 20
B7 | 800 | 55
B8 |  | 35
